Here are results for 2 proteins from PMC3517063 (Proteomics, 2012).

The data set deals with the molecule itself. Nature of the data set: cross-linking.

B1: proteasomal 20S core particle subunit α2 with C-terminal His6 tag (α2-His6) (natural protein, Haloferax volcanii, UniProt Q9V2V5 1-249, looked up)
chain: MNRNDKQAYDRGTSLFSPDGRIYQVEYAREAVKRGAPVLGVRTADGVVLAALRSTPSELMEAESIEKLHKLDDALGAATAGHVADARKLVDFARTTAQREHLRYGEPIGVETLTKTITDNIQESTQSGGTRPYGASLLIGGVENGSGRLFATDPSGTPQEWKAVAIGGHREDVQAALEDGYAEDLSLEDGLALAVEALVAADEEIESDELNLVTVSEAGYEIVDEETIAELFADATADDESDETDEREE
B1: the binding result is “binds”.

B2: proteasomal 20S core particle subunit α1 with His6 tag (α1-His6) (natural protein, Haloferax volcanii, UniProt Q9V2V6 1-252, looked up)
chain: MQGQAQQQAYDRGITIFSPDGRLYQVEYAREAVKRGTASIGVRTPEGVVLAADKRSRSPLMEPTSVEKIHKADDHIGIASAGHVADARQLIDFARRQSQVNRLRYGEPIGIETLTKEVTDHIQQYTQVGGARPFGVALLIGGVENGTPRLYETDPSGTPYEWKAVSIGADRGDHQEHLEENFRDDLTLDEGIELALEAIASTSDEGTAPDGVDVATVSAETERFVELSNDEIESYLEANDLLATEDDEQTEE
Turning to B2, the binding result is on record as “binds”.
